Source: PMC6082832, “Effects of polymorphic variation on the thermostability of heterogenous populations of CYP3A4 and CYP2C9 enzymes in solution” (Scientific Reports, 2018)

Target: the molecule itself
Assay: SEC; BioSep-SEC-S3000 column (5-700 kDa), room temperature, 0.5 ml/min, 100 mM potassium phosphate pH 7.4; 20 µl sample at ~2 mg/ml total protein; monitored at 410 nm; sizes estimated from the Bio-Rad gel filtration standard calibration curve

B1: CYP2C9 wild-type, N-terminally truncated, His-tagged recombinant protein (enzyme, human, UniProt P11712 29-490, looked up)
chain: LPPGPTPLPVIGNILQIGIKDISKSLTNLSKVYGPVFTLYFGLKPIVVLHGYEAVKEALIDLGEEFSGRGIFPLAERANRGFGIVFSNGKKWKEIRRFSLMTLRNFGMGKRSIEDRVQEEARCLVEELRKTKASPCDPTFILGCAPCNVICSIIFHKRFDYKDQQFLNLMEKLNENIKILSSPWIQICNNFSPIIDYFPGTHNKLLKNVAFMKSYILEKVKEHQESMDMNNPQDFIDCFLMKMEKEKHNQPSEFTIESLENTAVDLFGAGTETTSTTLRYALLLLLKHPEVTAKVQEEIERVIGRNRSPCMQDRSHMPYTDAVVHEVQRYIDLLPTSLPHAVTCDIKFRNYLIPKGTTILISLTSVLHDNKEFPNPEMFDPHHFLDEGGNFKKSKYFMPFSAGKRICVGEALAGMELFLFLTSILQNFNLKSLVDPKNLDTTPVVNGFASVPPFYQLCFIPV
modifications: biotin on the BCCP tag (50 µM biotin added to facilitate biotinylation)
notes: cytochrome P450 2C9, human; Vector pBJW102.2 (pQE-80L with BCCP and a glycine-serine linker 3' to the His-6 tag); also called CYP2C9 WT; source: E. coli DH5α, purified (Protino Ni-TED His-tag purification)
  stoichiometry N: ~8 subunits
